Assay results: US20210196796A1 (SYNTHEKINE, published 2021)
Numbering of substitutions follows the chain as printed. Numbers in names are those of the source.

T1: orthogonal hCD122 receptor (hoRb), hCD122 with H133D and Y134F (human, UniProt P14784 27-550)
T1 sequence: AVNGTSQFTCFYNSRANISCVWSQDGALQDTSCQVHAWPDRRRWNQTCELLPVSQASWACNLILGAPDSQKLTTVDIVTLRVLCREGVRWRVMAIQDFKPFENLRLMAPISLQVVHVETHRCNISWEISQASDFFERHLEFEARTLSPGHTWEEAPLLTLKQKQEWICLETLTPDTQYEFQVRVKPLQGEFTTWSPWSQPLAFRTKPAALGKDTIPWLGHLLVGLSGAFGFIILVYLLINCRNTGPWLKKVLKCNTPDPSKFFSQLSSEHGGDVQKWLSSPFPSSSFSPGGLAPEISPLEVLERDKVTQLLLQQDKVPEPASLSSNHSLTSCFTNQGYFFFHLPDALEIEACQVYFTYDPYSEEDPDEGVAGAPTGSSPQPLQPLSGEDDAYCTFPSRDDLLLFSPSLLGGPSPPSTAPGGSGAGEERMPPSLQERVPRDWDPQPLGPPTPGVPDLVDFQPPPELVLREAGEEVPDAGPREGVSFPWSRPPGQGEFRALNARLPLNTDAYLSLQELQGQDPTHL

B1: L18D, SQVLKA (ligand)
chain: APTSSSTKKTQLQLSQLDVLLKAILNGINNYKNPKLTRMLTFKFYMPKKATELKHLQCLEEELKPLEEVLNLAQSKNFHLRPRDLISNINVIVLELKGSETTFMCEYADETATIVEFLNRWITFCQSIISTLT
B2: T3A, SQVLKA (ligand)
chain: B1 chain with T3A, D18L
B3: L18T, SQVLKA (ligand)
chain: B1 chain with D18T
B4: ΔL19, SQ_LKA (ligand)
chain: APTSSSTKKTQLQLSQLLLLKAILNGINNYKNPKLTRMLTFKFYMPKKATELKHLQCLEEELKPLEEVLNLAQSKNFHLRPRDLISNINVIVLELKGSETTFMCEYADETATIVEFLNRWITFCQSIISTLT
B5: SQILKA (ligand)
chain: B1 chain with D18L, V19I
B6: ΔD20, SQV_KA (ligand)
chain: B4 chain with L19V
B7: SQVSKA (ligand)
chain: B1 chain with D18L, L20S
B8: T3G, SQVLKA (ligand)
chain: B1 chain with T3G, D18L
B9: T3Q, SQVLKA (ligand)
chain: B1 chain with T3Q, D18L
B10: T3E, SQVLKA (ligand)
chain: B1 chain with T3E, D18L
B11: T3N, SQVLKA (ligand)
chain: B1 chain with T3N, D18L
B12: T3D, SQVLKA (ligand)
chain: B1 chain with T3D, D18L
B13: T3R, SQVLKA (ligand)
chain: B1 chain with T3R, D18L
B14: T3K, SQVLKA (ligand)
chain: B1 chain with T3K, D18L

biological target: T1, orthogonal hCD122 receptor (hoRb), …; test: cell-based or functional assay
Throughout, for Relative Proliferation Fold Change 3F8 1:10: reference of the scale not given here.
Throughout, for Relative Proliferation Fold Change 3F8 1:2: reference of the scale not given here.
Throughout, for Relative Proliferation Fold Change 3F8 1:50: reference of the scale not given here.
Throughout, for Relative Proliferation Fold Change NKL 1:10: reference of the scale not given here.
Throughout, for Relative Proliferation Fold Change NKL 1:2: reference of the scale not given here.
Throughout, for Relative Proliferation Fold Change NKL 1:50: reference of the scale not given here.

Row | Binder | 3F8 Ortho Proliferation Signal 1:2 [cts/min] | 3F8 Ortho Proliferation Signal 1:10 [cts/min] | 3F8 Ortho Proliferation Signal 1:50 [cts/min] | Relative Proliferation Fold Change 3F8 1:2 [fold] | Relative Proliferation Fold Change 3F8 1:10 [fold] | Relative Proliferation Fold Change 3F8 1:50 [fold]
1 | B1 | 44000 | 49600 | 25200 | 92.5 | 81.3 | 28.4
2 | B2 | 41400 | 39300 | 19500 | 17.1 | 11 | 8.68
3 | B3 | 61100 | 51800 | 25700 | 2.05 | 6.27 | 13.8
4 | B4 | 736 | 1070 | 1540 | 1.11 | 1.27 | 1.98
5 | B5 | 38500 | 45700 | 20300 | 45.8 | 34.2 | 34.4
6 | B6 | 1010 | 1270 | 1370 | 1.51 | 1.35 | 1.66
7 | B7 | 47300 | 56600 | 33100 | 0.81 | 1.23 | 1.29
8 | B8 | 31800 | 24400 | 9460 | 20.4 | 19.4 | 7.14
9 | B9 | 39200 | 32200 | 14200 | 68.3 | 28.2 | 17.2
10 | B10 | 36100 | 36200 | 18900 | 20.8 | 45.5 | 16
11 | B11 | 34200 | 27200 | 9790 | 2.07 | 2.99 | 4.1
12 | B12 | 33400 | 35000 | 13400 | 35.1 | 18.6 | 19
13 | B13 | 28900 | 16800 | 5980 | 8.43 | 13.3 | 5.3
14 | B14 | 28900 | 15100 | 7150 | 50.9 | 7.35 | 9.24

biological target: T1, orthogonal hCD122 receptor (hoRb), …; test: cell-based or functional assay; remark: another data set of the same source

Row | Binder | NKL Ortho Proliferation Signal 1:2 | NKL Ortho Proliferation Signal 1:10 | NKL Ortho Proliferation Signal 1:50 | Relative Proliferation Fold Change NKL 1:2 [fold] | Relative Proliferation Fold Change NKL 1:10 [fold] | Relative Proliferation Fold Change NKL 1:50 [fold]
15 | B1 | 6380 | 8160 | 7460 | 0.6 | 0.59 | 0.56
16 | B2 | 69100 | 79500 | 47000 | 3.91 | 4.22 | 2.67
17 | B3 | 25000 | 20100 | 11300 | 2.37 | 1.49 | 0.87
18 | B4 | 6440 | 9120 | 8470 | 0.49 | 0.62 | 0.59
19 | B5 | 55300 | 52500 | 24500 | 4.01 | 3.44 | 1.67
20 | B6 | 6790 | 9390 | 8690 | 0.52 | 0.59 | 0.56
21 | B7 | 59500 | 73700 | 45000 | 1 | 1.73 | 1.91
22 | B8 | 58900 | 66900 | 32200 | 3.94 | 3.76 | 1.92
23 | B9 | 65300 | 73700 | 34800 | 4.19 | 4.03 | 1.93
24 | B10 | 68600 | 75000 | 37400 | 3.97 | 3.86 | 2.06
25 | B11 | 62400 | 65700 | 31400 | 3.87 | 3.32 | 1.77
26 | B12 | 49800 | 53900 | 27900 | 4.09 | 4.03 | 2.34
27 | B13 | 58400 | 40700 | 19300 | 4.15 | 2.9 | 1.45
28 | B14 | 42900 | 35500 | 18400 | 3.47 | 2.47 | 1.38
